From paper PMC3247260 (2011)

Experiments:
Assay in all cases: ITC
K48-linked diUb = K48-linked diUb (UniProt P0CG48 1-76, K48-linked (isopeptide linkage between the two Ub units))
ubiquitin (Ub) = ubiquitin (Ub) (UniProt P0CG48 1-76)
linear diUb = linear diUb (UniProt P0CG48 1-76; P0CG48 1-76)

B1: tandem UBA domains of USP13 (USP13-UBA12, residues 652-776) (domain or fragment)
chain: DIDESSVMQLAEMGFPLEACRKAVYFTGNMGAEVAFNWIIVHMEEPDFAEPLTMPGYGGAASAGASVFGASGLDNQPPEEIVAIITSMGFQRNQAIQALRATNNNLERALDWIFSHPEFEEDSDF
Kd (K48-linked diUb): 1800 nM
Kd (ubiquitin (Ub)): 21000 nM
Kd (linear diUb): 2300 nM
